Results as given in article PMC7717987, “αIIbβ3 variants in ten families with autosomal dominant macrothrombocytopenia: Expanding the mutational and clinical spectrum” (PLoS ONE, 2020).

Key:
Conditions in all cases: partners not purified
[1] = target: T1, integrin αIIbβ3 (human (endogenous in platelets), UniProt P08514-1 32-1039; P05106-1 27-788); assay: flow cytometry on cells; citrated whole blood of healthy controls stimulated with ADP (10 μM); platelets gated on FSC/SSC and CD42b; bound fibrinogen detected with FITC anti-bFG (clone 9F9); platelet activation index = (MFI test tube - MFI with EDTA 7 mM) / MFI with EDTA
T1 construct: integrin alpha-IIb (αIIb, GPIIb), human; integrin beta-3 (β3, GPIIIa, CD61), human; The platelets of the heterozygous patients carry wild-type and variant integrin together and are not made molecules; also called glycoprotein (GP) IIb/IIIa receptor complex; GPIIb/IIIa; source: endogenous, on platelets in citrated whole blood of healthy blood donors

[2] = target: T1, integrin αIIbβ3; assay: flow cytometry on cells; citrated whole blood of healthy controls stimulated with TRAP-6 (20 μM); platelets gated on FSC/SSC and CD42b; bound fibrinogen detected with FITC anti-bFG (clone 9F9); platelet activation index = (MFI test tube - MFI with EDTA 7 mM) / MFI with EDTA
[3] = target: T1, integrin αIIbβ3; assay: as above; remark: listed apart in the source
[4] = target: T1, integrin αIIbβ3; assay: flow cytometry on cells; citrated whole blood of healthy controls stimulated with ADP (10 μM); platelets gated on FSC/SSC and CD42b; bound fibrinogen detected with FITC anti-bFG (clone 9F9); platelet activation index = (MFI test tube - MFI with EDTA 7 mM) / MFI with EDTA; remark: listed apart in the source

platelet activation index (PAI) by bound fibrinogen, mean [1]: 19 fold increase in MFI over EDTA
platelet activation index (PAI) by bound fibrinogen, median [1]: 17 fold increase in MFI over EDTA
platelet activation index (PAI) by bound fibrinogen, median [2]: 16 fold increase in MFI over EDTA
platelet activation index (PAI) by bound fibrinogen, mean [3]: 15 fold increase in MFI over EDTA
platelet activation index (PAI) by bound fibrinogen, median [3]: 13 fold increase in MFI over EDTA
platelet activation index (PAI) by bound fibrinogen, median [4]: 19 fold increase in MFI over EDTA
B1: fibrinogen (complex, human (endogenous in whole blood))
chain 1: ADSGEGDFLAEGGGVRGPRVVERHQSACKDSDWPFCSDEDWNYKCPSGCRMKGLIDEVNQDFTNRINKLKNSLFEYQKNNKDSHSLTTNIMEILRGDFSSANNRDNTYNRVSEDLRSRIEVLKRKVIEKVQHIQLLQKNVRAQLVDMKRLEVDIDIKIRSCRGSCSRALAREVDLKDYEDQQKQLEQVIAKDLLPSRDRQHLPLIKMKPVPDLVPGNFKSQLQKVPPEWKALTDMPQMRMELERPGGNEITRGGSTSYGTGSETESPRNPSSAGSWNSGSSGPGSTGNRNPGSSGTGGTATWKPGSSGPGSTGSWNSGSSGTGSTGNQNPGSPRPGSTGTWNPGSSERGSAGHWTSESSVSGSTGQWHSESGSFRPDSPGSGNARPNNPDWGTFEEVSGNVSPGTRREYHTEKLVTSKGDKELRTGKEKVTSGSTTTTRRSCSKTVTKTVIGPDGHKEVTKEVVTSEDGSDCPEAMDLGTLSGIGTLDGFRHRHPDEAAFFDTASTGKTFPGFFSPMLGEFVSETESRGSESGIFTNTKESSSHHPGIAEFPSRGKSSSYSKQFTSSTSYNRGDSTFESKSYKMADEAGSEADHEGTHSTKRGHAKSRPVRGIHTSPLGKPSLSP
chain 2: QGVNDNEEGFFSARGHRPLDKKREEAPSLRPAPPPISGGGYRARPAKAAATQKKVERKAPDAGGCLHADPDLGVLCPTGCQLQEALLQQERPIRNSVDELNNNVEAVSQTSSSSFQYMYLLKDLWQKRQKQVKDNENVVNEYSSELEKHQLYIDETVNSNIPTNLRVLRSILENLRSKIQKLESDVSAQMEYCRTPCTVSCNIPVVSGKECEEIIRKGGETSEMYLIQPDSSVKPYRVYCDMNTENGGWTVIQNRQDGSVDFGRKWDPYKQGFGNVATNTDGKNYCGLPGEYWLGNDKISQLTRMGPTELLIEMEDWKGDKVKAHYGGFTVQNEANKYQISVNKYRGTAGNALMDGASQLMGENRTMTIHNGMFFSTYDRDNDGWLTSDPRKQCSKEDGGGWWYNRCHAANPNGRYYWGGQYTWDMAKHGTDDGVVWMNWKGSWYSMRKMSMKIRPFFPQQ
chain 3: YVATRDNCCILDERFGSYCPTTCGIADFLSTYQTKVDKDLQSLEDILHQVENKTSEVKQLIKAIQLTYNPDESSKPNMIDAATLKSRKMLEEIMKYEASILTHDSSIRYLQEIYNSNNQKIVNLKEKVAQLEAQCQEPCKDTVQIHDITGKDCQDIANKGAKQSGLYFIKPLKANQQFLVYCEIDGSGNGWTVFQKRLDGSVDFKKNWIQYKEGFGHLSPTGTTEFWLGNEKIHLISTQSAIPYALRVELEDWNGRTSTADYAMFKVGPEADKYRLTYAYFAGGDAGDAFDGFDFGDDPSDKFFTSHNGMQFSTWDNDNDKFEGNCAEQDGSGWWMNKCHAGHLNGVYYQGGTYSKASTPNGYDNGIIWATWKTRWYSMKKTTMKIIPFNRLTIGEGQQHHLGGAKQAGDV
notes: fibrinogen alpha chain, human; fibrinogen beta chain, human; fibrinogen gamma chain, human; Plasma fibrinogen of the donor's own blood; no fibrinogen was added; also called FG; soluble FG; source: endogenous, in citrated whole blood of healthy blood donors; copies: + +
